Assay results: publication PMC8761706, “Mapping of the fibrinogen-binding site on the staphylocoagulase C-terminal repeat region” (The Journal of Biological Chemistry, 2021)

Legend:
[5F]PR–R1 [1] = target: T1, [5F]PR–R1 (Staphylococcus aureus Newman D2 Tager …, 5-fluorescein (5-IAF) on the engineered C-terminal Cys); assay: other fluorescence titration; fluorescein-labeled construct at fixed concentration titrated with frag D; fluorescence intensity; 25 °C; 50 mM Hepes, 110 mM NaCl, 5 mM CaCl2, 1 mg/ml PEG-8000, pH 7.4, 10 μM FPR-CK; quadratic fit; n fixed to 1 for the Ala constructs and MP; conditions: both partners purified
T1 construct: the 10 SC residues preceding PR (1-10 of the construct numbering); staphylocoagulase, first 11 residues of the 32-residue pseudorepeat PR (11-21 of the construct numbering); last 21 residues of PR (22-42 of the construct numbering); staphylocoagulase repeat R1, 27 residues; engineered C-terminal Cys for labeling; not shown: His6, N-terminal, cleaved

[5F]PR–R1 [2] = target: T1, [5F]PR–R1; assay: other fluorescence titration; as the intensity titration in Hepes pH 7.4, with saturating GPRP (4.9 mM in the methods, 5 mM in the results); n fixed to 1; conditions: both partners purified

B1: fibrinogen fragment D (domain or fragment)
chain 1: VSEDLRSRIEVLKRKVIEKVQHIQLLQKNVRAQLVDMKRLEVDIDIKIRSCRGSCSRALAREVDLKDYEDQQKQLEQVIAKDLLPSR
chain 2: DNENVVNEYSSELEKHQLYIDETVNSNIPTNLRVLRSILENLRSKIQKLESDVSAQMEYCRTPCTVSCNIPVVSGKECEEIIRKGGETSEMYLIQPDSSVKPYRVYCDMNTENGGWTVIQNRQDGSVDFGRKWDPYKQGFGNVATNTDGKNYCGLPGEYWLGNDKISQLTRMGPTELLIEMEDWKGDKVKAHYGGFTVQNEANKYQISVNKYRGTAGNALMDGASQLMGENRTMTIHNGMFFSTYDRDNDGWLTSDPRKQCSKEDGGGWWYNRCHAANPNGRYYWGGQYTWDMAKHGTDDGVVWMNWKGSWYSMRKMSMKIRPFFPQQ
chain 3: KMLEEIMKYEASILTHDSSIRYLQEIYNSNNQKIVNLKEKVAQLEAQCQEPCKDTVQIHDITGKDCQDIANKGAKQSGLYFIKPLKANQQFLVYCEIDGSGNGWTVFQKRLDGSVDFKKNWIQYKEGFGHLSPTGTTEFWLGNEKIHLISTQSAIPYALRVELEDWNGRTSTADYAMFKVGPEADKYRLTYAYFAGGDAGDAFDGFDFGDDPSDKFFTSHNGMQFSTWDNDNDKFEGNCAEQDGSGWWMNKCHAGHLNGVYYQGGTYSKASTPNGYDNGIIWATWKTRWYSMKKTTMKIIPFNRLTIGEGQQHHLGGAK
Q: For B1, which Kd ([5F]PR–R1 [1]) is on record?
A: Its Kd is 49 nM.

Q: And the Kd ([5F]PR–R1 [2])?
A: Its Kd is 18 nM.
